US20110263014A1, “Cleavage of Nanog by Caspases Mediates the Differentiation of Embryonic Stem Cells” (BAYLOR COLLEGE OF MEDICINE, priority 2008, published 2011)
Entries after “also recorded” stand apart in the source; their conditions may differ.

How the values were obtained:
[1] = system: R1 ES cells; test: Apoptosis rate (counting apoptotic bodies); assay type: cell-based, mouse; conditions: over 72 hours post-stimulation with RA
Protocol: R1 ES cells (1×10^5) were plated into 6-cm dishes on irradiated MEFs and stimulated with RA differentiation medium for up to 72 hours. Cells were fixed with 4% paraformaldehyde (EMS, cat. no. 15710), stained with DAPI and mounted with Vectashield (Vector Lab, cat. no. H1200). The number of apoptotic figures was determined in triplicate per 100 cells. As a positive control, ES cells were incubated with staurosporine (Sigma, cat. no. 55921, 1 μM) for 4 hours.

[2] = target: T1, caspase-3 (Homo sapiens, UniProt P42574); test: caspase-3 activity assay (CaspGlo) with Nanog cleavage site peptides; assay type: biochemical; conditions: FIG. 10B
T1 construct: purchased BD Bioscience 556471
T1 sequence (P42574 29-175 limits assumed): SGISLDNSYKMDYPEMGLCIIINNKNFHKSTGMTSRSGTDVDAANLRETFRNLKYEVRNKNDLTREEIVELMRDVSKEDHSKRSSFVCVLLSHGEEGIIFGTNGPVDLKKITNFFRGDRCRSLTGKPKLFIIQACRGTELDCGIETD
T1 sequence (P42574 176-277 limits assumed): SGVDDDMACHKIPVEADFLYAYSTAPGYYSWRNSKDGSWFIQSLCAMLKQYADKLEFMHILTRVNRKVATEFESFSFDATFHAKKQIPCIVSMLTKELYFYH
Protocol: Trypsinized ES cells (R1; 200,000; D3 250,000) were plated into 6 wells containing normal ES cell medium, and on the next day the medium was changed to 1 μM RA differentiation medium. Cells were harvested with trypsin-EDTA (Invitrogen, cat. no. 25300-054), and protein extracts were made in 0.1% CHAPS buffer, pH 7.2 (50 mM Hepes; 150 mM KCl; 1× protease inhibitors (Roche, cat. no. 1697498001); 2 mM Na fluoride and orthovanadate, respectively, at specified time points. The CaspGlo (Promega, cat. no. G8091) kit was used to directly measure caspase activity. Before determining caspase activity, we tested the system for variability within the dynamic range, using recombinant caspase-3 (BD Bioscience, cat. no. 556471). The signal was measured with the Wallac 1429 Victorll instrument (Perkin-Elmer, Wellesley, Mass.).

Molecule	percentage of cells undergoing apoptosis [1]	inhibition / targeting of caspase-3 by cleavage site peptide [2]
CC1=C(/C=C/C(C)=C/C=C/C(C)=C/C(=O)O)C(C)(C)CCC1 [RA, retinoic acid]	essentially no increases	–
DSPD: hNanog caspase cleavage site peptide	–	effectively inhibit caspase-3
GSPD: mNanog caspase cleavage site peptide	–	effectively inhibit caspase-3; also recorded: still targeted by caspase-3
